Reference: the supplement of paper PMC9876800

Tested on: peptide library, one residue held at a place counted from the S/T acceptor
Test: relative phosphorylation of the sub-library (ratio to the mean residue at this position); higher = residue favoured
Conditions: human
Method in brief: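 Relative sub-library phosphorylation is a ratio to the mean residue at the same position. Purified recombinant kinases were incubated under kinase-specific conditions with biotinylated degenerate peptide sub-libraries, each fixing one residue at one position around a central Ser/Thr, using 50 μM peptide and 50 μM ATP spiked with γ-32P-ATP for 90 min. Spots captured on streptavidin membranes were phosphorimaged and quantified by densitometry.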

MYLK2, construct: Full length, sequence (Q9H1R3 whole entry, looked up): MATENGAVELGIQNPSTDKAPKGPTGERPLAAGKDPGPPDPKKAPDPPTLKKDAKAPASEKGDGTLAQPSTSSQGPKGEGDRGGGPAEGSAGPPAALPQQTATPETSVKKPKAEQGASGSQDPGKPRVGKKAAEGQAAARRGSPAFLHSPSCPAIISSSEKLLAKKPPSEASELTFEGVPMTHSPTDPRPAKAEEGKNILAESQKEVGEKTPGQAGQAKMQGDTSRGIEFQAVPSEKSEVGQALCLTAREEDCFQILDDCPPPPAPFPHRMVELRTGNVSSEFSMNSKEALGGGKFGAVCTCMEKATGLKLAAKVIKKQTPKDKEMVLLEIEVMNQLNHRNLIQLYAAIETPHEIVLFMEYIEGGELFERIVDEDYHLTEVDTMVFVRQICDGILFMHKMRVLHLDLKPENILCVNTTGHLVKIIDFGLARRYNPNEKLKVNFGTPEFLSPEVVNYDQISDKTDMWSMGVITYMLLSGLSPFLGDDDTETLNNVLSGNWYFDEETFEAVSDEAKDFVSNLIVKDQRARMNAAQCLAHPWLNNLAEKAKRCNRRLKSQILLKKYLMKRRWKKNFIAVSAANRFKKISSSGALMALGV
NLK, construct: Full length, sequence (Q9UBE8 whole entry, looked up): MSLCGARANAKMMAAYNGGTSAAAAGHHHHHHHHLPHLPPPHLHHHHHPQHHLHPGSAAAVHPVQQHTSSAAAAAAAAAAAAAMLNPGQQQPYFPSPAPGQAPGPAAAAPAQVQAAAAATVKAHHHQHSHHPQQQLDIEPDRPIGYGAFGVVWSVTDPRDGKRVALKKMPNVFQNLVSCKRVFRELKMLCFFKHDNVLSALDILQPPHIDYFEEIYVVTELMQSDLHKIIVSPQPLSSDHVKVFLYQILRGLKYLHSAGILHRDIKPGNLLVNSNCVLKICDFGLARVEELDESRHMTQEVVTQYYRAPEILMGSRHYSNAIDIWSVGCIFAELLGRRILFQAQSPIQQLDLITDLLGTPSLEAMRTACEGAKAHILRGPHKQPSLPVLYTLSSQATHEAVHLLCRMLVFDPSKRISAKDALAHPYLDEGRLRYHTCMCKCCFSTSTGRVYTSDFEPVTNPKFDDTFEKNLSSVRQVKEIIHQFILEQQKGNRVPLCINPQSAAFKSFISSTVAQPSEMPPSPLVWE
NEK8, construct: aa1-322, sequence (Q86SG6 1-322, looked up): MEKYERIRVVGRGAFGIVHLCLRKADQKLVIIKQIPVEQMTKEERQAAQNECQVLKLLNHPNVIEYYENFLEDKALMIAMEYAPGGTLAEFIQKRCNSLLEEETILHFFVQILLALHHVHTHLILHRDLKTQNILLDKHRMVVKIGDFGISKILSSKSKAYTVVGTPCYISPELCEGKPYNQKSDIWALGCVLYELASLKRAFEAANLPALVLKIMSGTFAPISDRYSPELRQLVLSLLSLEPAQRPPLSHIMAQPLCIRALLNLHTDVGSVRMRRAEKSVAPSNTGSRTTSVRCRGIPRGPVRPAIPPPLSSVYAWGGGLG

MKNK2, construct: Full length (from UniProt Q9HBH9)
relative phosphorylation
Conditions | at +1 | at +2 | at +3 | at +4 | at -1 | at -2 | at -3 | at -4 | at -5
A fixed | 0.742 | 1 | 0.937 | 0.945 | 1.12 | 0.903 | 0.8 | 1.28 | 1.23
D fixed | 0.22 | 0.453 | 0.406 | 0.728 | 0.37 | 0.24 | 0.239 | 0.284 | 0.221
E fixed | 0.385 | 0.465 | 0.433 | 0.79 | 0.369 | 0.24 | 0.449 | 0.359 | 0.272
F fixed | 1.36 | 0.807 | 0.936 | 0.895 | 0.555 | 0.439 | 0.453 | 0.721 | 0.949
G fixed | 0.506 | 0.739 | 1.58 | 1.08 | 1.04 | 0.958 | 1.53 | 1.54 | 1.05
H fixed | 1.06 | 1.71 | 1.32 | 1.22 | 1.24 | 0.874 | 1.07 | 1.02 | 0.898
I fixed | 1.35 | 0.818 | 0.664 | 0.756 | 0.417 | 0.368 | 0.365 | 0.716 | 1.11
K fixed | 1.02 | 0.875 | 1.89 | 1.62 | 3.14 | 2.06 | 3.1 | 1.75 | 1.4
L fixed | 1.17 | 0.781 | 0.923 | 0.745 | 0.741 | 0.421 | 0.439 | 0.909 | 1.47
M fixed | 1.73 | 0.915 | 0.942 | 0.849 | 0.887 | 0.427 | 0.617 | 0.898 | 0.976
N fixed | 0.667 | 0.797 | 0.76 | 0.94 | 0.96 | 0.956 | 0.847 | 0.911 | 0.648
P fixed | 0.24 | 0.44 | 0.931 | 1.21 | 0.284 | 0.571 | 1.48 | 1.58 | 1.49
Q fixed | 1.59 | 0.904 | 1.1 | 1.13 | 1.2 | 0.835 | 0.957 | 0.884 | 0.767
R fixed | 1.19 | 1.29 | 1.34 | 1.05 | 2.77 | 6.1 | 3.21 | 1.79 | 1.23
V fixed | 1.19 | 0.981 | 0.703 | 0.861 | 0.566 | 0.5 | 0.401 | 0.749 | 1.47
W fixed | 1.17 | 1.39 | 0.974 | 1.16 | 0.531 | 0.491 | 0.475 | 0.713 | 0.876
Y fixed | 1.41 | 2.63 | 1.15 | 1.03 | 0.818 | 0.615 | 0.574 | 0.899 | 0.942
pThr fixed | 0.649 | 0.492 | 0.516 | 0.736 | 0.203 | 0.304 | 0.47 | 0.562 | 0.572
pTyr fixed | 0.783 | 0.714 | 0.604 | 0.782 | 0.285 | 0.356 | 0.568 | 0.647 | 0.642

MYLK2, construct: Full length (from UniProt Q9H1R3)
relative phosphorylation
Conditions | at +1 | at +2 | at +3 | at +4 | at -1 | at -2 | at -3 | at -4 | at -5
A fixed | 1.17 | 0.898 | 0.72 | 1.02 | 1 | 1.55 | 0.879 | 1.34 | 1.37
D fixed | 0.541 | 0.852 | 1.08 | 1.07 | 0.654 | 0.423 | 0.467 | 0.847 | 0.683
E fixed | 0.705 | 1.5 | 0.72 | 1.38 | 0.659 | 0.454 | 0.605 | 1.03 | 0.644
F fixed | 0.621 | 1.42 | 1.62 | 0.804 | 0.486 | 0.461 | 0.464 | 0.852 | 0.932
G fixed | 1.19 | 0.696 | 1.03 | 0.936 | 0.922 | 1.37 | 1.45 | 1.46 | 1.5
H fixed | 0.988 | 1.02 | 0.825 | 0.938 | 1.49 | 1.08 | 1.02 | 0.942 | 1.1
I fixed | 0.784 | 1.28 | 1.37 | 1.36 | 0.556 | 0.471 | 0.412 | 0.639 | 0.657
K fixed | 1.5 | 0.664 | 0.482 | 0.898 | 1.89 | 1.44 | 2.17 | 1.03 | 1.19
L fixed | 0.785 | 1.15 | 2.01 | 1.17 | 0.885 | 0.461 | 0.421 | 0.702 | 0.723
M fixed | 1.27 | 1.06 | 1.13 | 0.925 | 0.891 | 0.512 | 0.474 | 0.836 | 0.739
N fixed | 0.945 | 0.783 | 0.84 | 0.736 | 1.41 | 0.819 | 0.85 | 0.894 | 0.884
P fixed | 0.323 | 0.785 | 0.8 | 1.36 | 1.37 | 1 | 1.35 | 1.53 | 1.62
Q fixed | 1.81 | 0.757 | 0.557 | 0.973 | 1.35 | 0.806 | 0.894 | 1.01 | 0.834
R fixed | 1.68 | 0.575 | 0.525 | 0.58 | 1.13 | 4.52 | 3.77 | 1.28 | 0.929
V fixed | 1.07 | 1.21 | 0.919 | 1.23 | 0.688 | 0.558 | 0.477 | 0.753 | 0.853
W fixed | 0.902 | 1.31 | 1.6 | 0.903 | 0.658 | 0.527 | 0.691 | 1.01 | 1.25
Y fixed | 0.721 | 1.04 | 0.78 | 0.715 | 0.958 | 0.529 | 0.6 | 0.843 | 1.08
pThr fixed | 1.71 | 1.59 | 0.794 | 1.43 | 0.612 | 0.958 | 0.847 | 1.05 | 1.06
pTyr fixed | 0.726 | 1.47 | 0.977 | 1.37 | 0.886 | 0.674 | 0.819 | 0.934 | 0.84

NEK8, construct: aa1-322 (from UniProt Q86SG6)
relative phosphorylation
Conditions | at +1 | at +2 | at +3 | at +4 | at -1 | at -2 | at -3 | at -4 | at -5
A fixed | 0.671 | 0.695 | 0.727 | 0.752 | 0.875 | 0.751 | 0.814 | 0.847 | 0.971
D fixed | 0.407 | 0.332 | 0.655 | 0.562 | 1.08 | 1.53 | 0.918 | 1.68 | 1.61
E fixed | 0.37 | 0.28 | 0.459 | 0.527 | 1.16 | 1.09 | 0.764 | 1.25 | 1.09
F fixed | 1.97 | 1.12 | 1.7 | 1.11 | 0.777 | 0.882 | 0.995 | 0.89 | 1.02
G fixed | 0.654 | 0.656 | 0.992 | 0.944 | 0.602 | 1.09 | 0.975 | 0.936 | 1.05
H fixed | 1 | 1.01 | 1.16 | 0.97 | 0.967 | 0.963 | 1.05 | 0.983 | 1.04
I fixed | 0.826 | 0.761 | 0.74 | 0.815 | 0.555 | 0.679 | 0.69 | 0.606 | 0.658
K fixed | 0.933 | 2.05 | 1.4 | 1.81 | 1.5 | 0.755 | 0.799 | 0.918 | 1.08
L fixed | 1.06 | 0.845 | 1.04 | 0.978 | 1.11 | 1.25 | 1.56 | 0.792 | 0.771
M fixed | 2.03 | 0.89 | 0.95 | 0.97 | 1.36 | 0.959 | 1.52 | 0.858 | 0.76
N fixed | 0.945 | 0.841 | 1.05 | 1.02 | 1.11 | 1 | 0.837 | 1.09 | 1.06
P fixed | 0.239 | 0.525 | 0.826 | 1.32 | 0.433 | 0.485 | 0.878 | 0.926 | 1.11
Q fixed | 1.33 | 0.836 | 0.861 | 1.12 | 1.34 | 0.75 | 0.924 | 0.839 | 0.935
R fixed | 1.34 | 3.13 | 1.54 | 1.54 | 1.72 | 1.59 | 1.84 | 0.966 | 0.956
V fixed | 0.7 | 0.798 | 0.628 | 0.66 | 0.63 | 0.625 | 0.465 | 0.597 | 0.712
W fixed | 1.29 | 0.948 | 1.26 | 1.03 | 0.775 | 1.33 | 1.05 | 2.01 | 1.3
Y fixed | 1.24 | 1.28 | 1.02 | 0.86 | 0.999 | 1.26 | 0.924 | 0.805 | 0.871
pThr fixed | 0.717 | 0.574 | 0.612 | 0.672 | 0.593 | 1.01 | 1.17 | 1.13 | 1.4
pTyr fixed | 0.64 | 0.439 | 0.819 | 0.583 | 1.42 | 1.66 | 1.3 | 1.05 | 1.38

NLK, construct: Full length (from UniProt Q9UBE8)
relative phosphorylation
Conditions | at +1 | at +2 | at +3 | at +4 | at -1 | at -2 | at -3 | at -4 | at -5
A fixed | 0.638 | 0.768 | 0.938 | 0.8 | 0.85 | 0.989 | 1.12 | 1.03 | 0.998
D fixed | 0.435 | 0.514 | 0.628 | 0.634 | 0.604 | 0.568 | 0.652 | 0.931 | 1.01
E fixed | 0.41 | 0.477 | 0.618 | 0.607 | 0.571 | 0.604 | 0.729 | 0.855 | 0.86
F fixed | 0.806 | 0.705 | 0.863 | 0.75 | 0.88 | 0.807 | 0.723 | 0.802 | 0.926
G fixed | 1.01 | 0.96 | 1.25 | 0.939 | 0.904 | 0.764 | 1.38 | 1.01 | 0.982
H fixed | 0.652 | 1.23 | 1.04 | 0.982 | 1.21 | 0.842 | 0.819 | 1.11 | 1.02
I fixed | 0.888 | 0.99 | 1.24 | 1.37 | 0.868 | 0.941 | 0.579 | 0.931 | 0.847
K fixed | 0.654 | 1.56 | 1.39 | 1.47 | 1.16 | 0.992 | 0.991 | 1.18 | 1.19
L fixed | 0.921 | 1.12 | 0.995 | 1 | 1.9 | 1.81 | 1.12 | 1.03 | 0.995
M fixed | 0.902 | 0.853 | 1.01 | 0.983 | 1.38 | 1.56 | 1.63 | 0.992 | 0.768
N fixed | 0.581 | 0.991 | 0.762 | 0.868 | 0.805 | 0.812 | 0.956 | 1.1 | 1.01
P fixed | 5.41 | 0.754 | 0.9 | 0.946 | 1.07 | 1.42 | 1.16 | 0.89 | 1.02
Q fixed | 0.629 | 0.904 | 0.883 | 0.948 | 0.953 | 1.03 | 0.941 | 1.02 | 1.06
R fixed | 0.798 | 2.21 | 1.66 | 1.39 | 1.35 | 1.41 | 1.9 | 1.32 | 1.3
V fixed | 0.777 | 1.09 | 0.989 | 1.16 | 0.995 | 0.861 | 0.864 | 0.85 | 0.831
W fixed | 0.753 | 0.859 | 0.824 | 1.16 | 0.638 | 0.807 | 0.752 | 1.07 | 1.07
Y fixed | 0.743 | 1.01 | 1.01 | 0.996 | 0.857 | 0.796 | 0.688 | 0.88 | 1.11
pThr fixed | 0.784 | 0.694 | 0.723 | 0.725 | 0.775 | 0.996 | 0.944 | 1.18 | 0.965
pTyr fixed | 0.717 | 0.523 | 0.796 | 0.631 | 0.774 | 0.772 | 0.734 | 0.661 | 0.949
